# Assay results as given in IntAct's records for PubMed 35512704.
# B1: Speckle-type POZ protein (Homo sapiens), O43791 (parent)
# chain: MSRVPSPPPPAEMSSGPVAESWCYTQIKVVKFSYMWTINNFSFCREEMGEVIKSSTFSSGANDKLKWCLRVNPKGLDEESKDYLSLYLLLVSCPKSEVRAKFKFSILNAKGEETKAMESQRAYRFVQGKDWGFKKFIRRDFLLDEANGLLPDDKLTLFCEVSVVQDSVNISGQNTMNMVKVPECRLADELGGLWENSRFTDCCLCVAGQEFQAHKAILAARSPVFSAMFEHEMEESKKNRVEINDVEPEVFKEMMCFIYTGKAPNLDKMADDLLAAADKYALERLKVMCEDALCSNLSVENAAEILILADLHSADQLKTQAVDFINYHASDVLETSGWKSMVVSHPHLVAEAYRSLASAQCPFLGPPRKRLKQS
# partner: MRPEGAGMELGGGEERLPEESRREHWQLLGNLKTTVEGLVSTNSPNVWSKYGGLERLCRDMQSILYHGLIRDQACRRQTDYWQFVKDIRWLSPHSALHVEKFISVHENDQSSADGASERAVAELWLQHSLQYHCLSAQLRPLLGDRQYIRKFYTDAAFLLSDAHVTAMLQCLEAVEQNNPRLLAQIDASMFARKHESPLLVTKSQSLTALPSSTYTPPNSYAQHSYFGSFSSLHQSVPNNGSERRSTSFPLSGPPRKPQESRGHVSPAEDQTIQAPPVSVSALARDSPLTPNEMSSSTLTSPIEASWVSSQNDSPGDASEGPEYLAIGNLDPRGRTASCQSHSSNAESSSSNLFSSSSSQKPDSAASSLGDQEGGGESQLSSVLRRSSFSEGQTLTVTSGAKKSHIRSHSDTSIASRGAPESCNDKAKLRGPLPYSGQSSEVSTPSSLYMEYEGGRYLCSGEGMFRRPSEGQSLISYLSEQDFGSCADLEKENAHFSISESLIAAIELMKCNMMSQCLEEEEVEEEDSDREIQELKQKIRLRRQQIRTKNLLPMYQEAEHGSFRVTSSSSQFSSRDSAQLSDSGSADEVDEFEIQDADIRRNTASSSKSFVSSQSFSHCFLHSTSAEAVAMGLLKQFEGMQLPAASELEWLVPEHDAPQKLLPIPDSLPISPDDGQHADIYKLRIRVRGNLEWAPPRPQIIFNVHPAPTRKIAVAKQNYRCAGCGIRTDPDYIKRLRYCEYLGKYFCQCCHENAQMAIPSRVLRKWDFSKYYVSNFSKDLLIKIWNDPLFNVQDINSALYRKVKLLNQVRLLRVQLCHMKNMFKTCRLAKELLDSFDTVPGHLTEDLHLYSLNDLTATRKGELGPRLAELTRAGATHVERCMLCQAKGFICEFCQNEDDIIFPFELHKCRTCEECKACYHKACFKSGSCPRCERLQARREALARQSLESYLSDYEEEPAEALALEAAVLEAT
# B2: Speckle-type POZ protein (Homo sapiens), O43791 (parent)
# chain: B1 chain
# partner: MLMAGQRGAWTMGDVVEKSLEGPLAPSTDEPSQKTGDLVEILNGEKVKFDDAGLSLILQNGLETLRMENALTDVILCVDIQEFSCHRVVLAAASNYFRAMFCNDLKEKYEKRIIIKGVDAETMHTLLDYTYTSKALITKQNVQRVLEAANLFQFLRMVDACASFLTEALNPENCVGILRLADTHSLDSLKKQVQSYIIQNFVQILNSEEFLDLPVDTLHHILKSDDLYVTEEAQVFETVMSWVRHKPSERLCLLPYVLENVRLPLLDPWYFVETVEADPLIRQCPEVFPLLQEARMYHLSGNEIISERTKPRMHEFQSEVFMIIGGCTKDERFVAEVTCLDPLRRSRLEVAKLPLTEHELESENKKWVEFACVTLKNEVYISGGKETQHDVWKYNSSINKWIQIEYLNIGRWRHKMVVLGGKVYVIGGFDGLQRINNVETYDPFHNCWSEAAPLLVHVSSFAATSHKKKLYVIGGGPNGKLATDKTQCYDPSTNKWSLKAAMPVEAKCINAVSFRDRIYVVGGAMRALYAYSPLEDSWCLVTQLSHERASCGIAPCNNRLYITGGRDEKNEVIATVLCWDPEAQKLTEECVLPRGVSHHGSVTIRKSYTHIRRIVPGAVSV
# B3: Speckle-type POZ protein (Homo sapiens), O43791 (parent)
# chain: B1 chain
# partner: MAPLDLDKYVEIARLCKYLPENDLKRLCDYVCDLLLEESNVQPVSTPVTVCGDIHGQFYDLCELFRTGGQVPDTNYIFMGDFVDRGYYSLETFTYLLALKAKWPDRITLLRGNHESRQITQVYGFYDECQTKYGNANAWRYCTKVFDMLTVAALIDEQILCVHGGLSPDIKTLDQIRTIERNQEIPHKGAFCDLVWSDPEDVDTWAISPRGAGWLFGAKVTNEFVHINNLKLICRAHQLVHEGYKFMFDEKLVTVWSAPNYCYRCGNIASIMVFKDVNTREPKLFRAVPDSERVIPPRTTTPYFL
# B4: Speckle-type POZ protein (Homo sapiens), O43791 (parent)
# chain: B1 chain
# partner: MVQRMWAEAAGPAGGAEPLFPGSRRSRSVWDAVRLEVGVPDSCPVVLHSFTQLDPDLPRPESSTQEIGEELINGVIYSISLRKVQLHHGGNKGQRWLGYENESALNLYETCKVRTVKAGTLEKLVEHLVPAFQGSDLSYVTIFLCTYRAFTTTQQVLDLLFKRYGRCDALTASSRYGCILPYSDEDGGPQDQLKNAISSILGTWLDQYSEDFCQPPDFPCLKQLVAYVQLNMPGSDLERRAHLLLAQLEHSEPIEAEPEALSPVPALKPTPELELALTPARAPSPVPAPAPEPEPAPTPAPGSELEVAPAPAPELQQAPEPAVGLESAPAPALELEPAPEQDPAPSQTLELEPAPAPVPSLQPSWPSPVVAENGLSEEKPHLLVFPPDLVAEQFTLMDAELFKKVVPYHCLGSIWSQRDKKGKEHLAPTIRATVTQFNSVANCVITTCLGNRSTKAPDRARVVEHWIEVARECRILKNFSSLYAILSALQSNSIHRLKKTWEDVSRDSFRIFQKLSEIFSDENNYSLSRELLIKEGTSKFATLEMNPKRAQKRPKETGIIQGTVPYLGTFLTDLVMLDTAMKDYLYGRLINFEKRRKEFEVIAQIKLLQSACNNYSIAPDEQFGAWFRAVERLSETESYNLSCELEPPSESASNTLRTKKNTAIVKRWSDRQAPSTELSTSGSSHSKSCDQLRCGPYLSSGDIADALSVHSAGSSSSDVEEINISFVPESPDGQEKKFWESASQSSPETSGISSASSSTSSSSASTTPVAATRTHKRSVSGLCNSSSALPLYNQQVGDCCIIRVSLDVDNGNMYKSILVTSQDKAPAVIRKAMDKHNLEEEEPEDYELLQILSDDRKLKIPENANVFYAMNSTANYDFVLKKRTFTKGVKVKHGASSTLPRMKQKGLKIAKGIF
# B5: Speckle-type POZ protein (Homo sapiens), O43791 (parent)
# chain: B1 chain
# partner: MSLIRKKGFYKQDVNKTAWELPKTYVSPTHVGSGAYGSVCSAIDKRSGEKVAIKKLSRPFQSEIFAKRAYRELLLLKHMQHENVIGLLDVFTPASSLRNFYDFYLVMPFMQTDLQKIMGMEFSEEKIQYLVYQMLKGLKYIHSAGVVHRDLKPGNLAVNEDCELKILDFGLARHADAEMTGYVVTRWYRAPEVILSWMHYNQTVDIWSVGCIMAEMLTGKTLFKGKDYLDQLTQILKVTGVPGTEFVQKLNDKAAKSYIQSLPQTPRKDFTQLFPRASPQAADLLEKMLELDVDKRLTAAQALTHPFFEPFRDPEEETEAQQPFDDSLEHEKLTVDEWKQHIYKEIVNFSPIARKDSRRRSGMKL
# B6: Speckle-type POZ protein (Homo sapiens), O43791 (parent)
# chain: B1 chain
# partner: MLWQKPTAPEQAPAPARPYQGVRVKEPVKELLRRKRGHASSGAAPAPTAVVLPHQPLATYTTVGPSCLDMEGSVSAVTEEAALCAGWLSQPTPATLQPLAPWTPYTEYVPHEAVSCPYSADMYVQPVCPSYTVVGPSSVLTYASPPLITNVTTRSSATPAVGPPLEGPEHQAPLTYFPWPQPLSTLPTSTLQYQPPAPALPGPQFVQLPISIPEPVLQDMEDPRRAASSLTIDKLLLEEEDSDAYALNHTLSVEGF
# B7: Speckle-type POZ protein (Homo sapiens), O43791 (parent)
# chain: B1 chain
# partner: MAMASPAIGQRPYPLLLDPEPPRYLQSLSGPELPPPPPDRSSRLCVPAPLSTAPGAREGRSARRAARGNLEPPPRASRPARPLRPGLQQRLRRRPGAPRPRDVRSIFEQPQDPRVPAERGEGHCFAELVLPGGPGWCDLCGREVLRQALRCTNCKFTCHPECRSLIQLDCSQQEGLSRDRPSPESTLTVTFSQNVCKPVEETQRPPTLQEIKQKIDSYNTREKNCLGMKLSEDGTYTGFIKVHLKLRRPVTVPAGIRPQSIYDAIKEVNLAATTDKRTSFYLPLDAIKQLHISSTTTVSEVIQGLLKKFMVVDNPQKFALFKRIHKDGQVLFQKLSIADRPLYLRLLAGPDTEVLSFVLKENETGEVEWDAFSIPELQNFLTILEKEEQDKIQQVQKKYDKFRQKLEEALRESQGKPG
# Variants of: B1
# Conditions: with rubic_human RUBCN
row,effect of a mutation on the interaction,Variant
1,with no effect,Y87C

# Variants of: B2
# Conditions: with klhl6_human KLHL6, Q8WZ60
row,effect of a mutation on the interaction,Variant
1,with no effect,Y87C

# Variants of: B2
# Conditions: with klhl6_human KLHL6, Q8WZ60
# Remark: another data set of the same source
row,effect of a mutation on the interaction,Variant
1,with no effect,F133L

# Variants of: B2
# Conditions: with klhl6_human KLHL6, Q8WZ60
# Remark: another data set of the same source
row,effect of a mutation on the interaction,Variant
1,with no effect,F133V

# Variants of: B2
# Conditions: with klhl6_human KLHL6, Q8WZ60
# Remark: another data set of the same source
row,effect of a mutation on the interaction,Variant
1,with no effect,F102C

# Variants of: B3
# Conditions: with ppp6_human PPP6C
row,effect of a mutation on the interaction,Variant
1,with no effect,Y87C

# Variants of: B3
# Conditions: with ppp6_human PPP6C
# Remark: another data set of the same source
row,effect of a mutation on the interaction,Variant
1,with no effect,F133V

# Variants of: B3
# Conditions: with ppp6_human PPP6C
# Remark: another data set of the same source
row,effect of a mutation on the interaction,Variant
1,with no effect,F133L

# Variants of: B3
# Conditions: with ppp6_human PPP6C
# Remark: another data set of the same source
row,effect of a mutation on the interaction,Variant
1,with no effect,F102C

# Variants of: B4
# Conditions: with gnds_human RALGDS
row,effect of a mutation on the interaction,Variant
1,with no effect,F102C

# Variants of: B4
# Conditions: with gnds_human RALGDS
# Remark: another data set of the same source
row,effect of a mutation on the interaction,Variant
1,with no effect,F133L

# Variants of: B4
# Conditions: with gnds_human RALGDS
# Remark: another data set of the same source
row,effect of a mutation on the interaction,Variant
1,with no effect,F133V

# Variants of: B4
# Conditions: with gnds_human RALGDS
# Remark: another data set of the same source
row,effect of a mutation on the interaction,Variant
1,with no effect,Y87C

# Variants of: B5
# Conditions: with mk13_human MAPK13, O15264
row,effect of a mutation on the interaction,Variant
1,with no effect,Y87C

# Variants of: B5
# Conditions: with mk13_human MAPK13, O15264
# Remark: another data set of the same source
row,effect of a mutation on the interaction,Variant
1,with no effect,F102C

# Variants of: B5
# Conditions: with mk13_human MAPK13, O15264
# Remark: another data set of the same source
row,effect of a mutation on the interaction,Variant
1,with no effect,F133V

# Variants of: B5
# Conditions: with mk13_human MAPK13, O15264
# Remark: another data set of the same source
row,effect of a mutation on the interaction,Variant
1,with no effect,F133L

# Variants of: B6
# Conditions: with obf1_human POU2AF1, Q16633
row,effect of a mutation on the interaction,Variant
1,with no effect,Y87C

# Variants of: B6
# Conditions: with obf1_human POU2AF1, Q16633
# Remark: another data set of the same source
row,effect of a mutation on the interaction,Variant
1,with no effect,F102C

# Variants of: B6
# Conditions: with obf1_human POU2AF1, Q16633
# Remark: another data set of the same source
row,effect of a mutation on the interaction,Variant
1,with no effect,F133V

# Variants of: B6
# Conditions: with obf1_human POU2AF1, Q16633
# Remark: another data set of the same source
row,effect of a mutation on the interaction,Variant
1,with no effect,F133L

# Variants of: B7
# Conditions: with rasf5_human RASSF5, Q8WWW0
row,effect of a mutation on the interaction,Variant
1,with no effect,F102C

# Variants of: B7
# Conditions: with rasf5_human RASSF5, Q8WWW0
# Remark: another data set of the same source
row,effect of a mutation on the interaction,Variant
1,with no effect,F133V

# Variants of: B7
# Conditions: with rasf5_human RASSF5, Q8WWW0
# Remark: another data set of the same source
row,effect of a mutation on the interaction,Variant
1,with no effect,F133L
